# Experimental data published in patent publication US20210380675A1 (Kyowa Kirin, published 2021).
# Residue numbers refer to the chain shown, from its start.
# T1: human IL-36γ, truncated (human, UniProt Q9NZH8 18-169)
# T1 construct: Bought from R&D Systems (cat 6835-IL); also called human IL-36 gamma; hIL-36gamma
# T1 sequence: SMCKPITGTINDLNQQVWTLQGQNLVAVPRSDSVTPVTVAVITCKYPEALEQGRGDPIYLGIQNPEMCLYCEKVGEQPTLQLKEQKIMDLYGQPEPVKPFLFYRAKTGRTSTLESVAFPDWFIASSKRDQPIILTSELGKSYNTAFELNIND
# T2: cynomolgus IL-36γ, truncated (cynomolgus macaque (Macaca fascicularis), UniProt Q9NZH8 18-167 (human entry), limits assumed)
# T2 construct: Untagged after removal of the His-SUMO tag; also called cynomolgus IL-36 gamma; cyIL-36gamma
# T2 chain: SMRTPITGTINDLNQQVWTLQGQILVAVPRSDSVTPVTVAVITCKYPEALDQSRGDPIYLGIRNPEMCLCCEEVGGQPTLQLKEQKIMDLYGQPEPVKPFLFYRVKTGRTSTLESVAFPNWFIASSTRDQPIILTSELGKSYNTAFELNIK
# T3: human IL-36α(R12), truncated (human, UniProt Q9UHA7 6-158)
# T3 construct: Untagged after removal of the His-SUMO tag; also called hIL-36alpha
# T3 chain: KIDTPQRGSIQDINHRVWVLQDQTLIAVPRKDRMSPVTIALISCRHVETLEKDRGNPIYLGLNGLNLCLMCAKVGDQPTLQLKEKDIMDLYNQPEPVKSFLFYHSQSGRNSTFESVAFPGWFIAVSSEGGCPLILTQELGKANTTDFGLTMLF
# T4: cynomolgus IL-36α, truncated (cynomolgus macaque (Macaca fascicularis), UniProt Q9UHA7 14-158 (human entry), limits assumed)
# T4 construct: Untagged after removal of the His-SUMO tag; also called cynomolgus IL-36 alpha; cyIL-36alpha
# T4 chain: T3 chain with I2S, D3E, T4M, R7P, G8V, T24I, M34V, A40S, V74A
# T5: human IL-36α(Q12), truncated (human, UniProt Q9UHA7 6-158)
# T5 construct: Untagged after removal of the His-SUMO tag
# T5 sequence: T3 chain with R7Q
# B1: 144L249B (antibody, V domains shown)
# VH: EVQLQQSGAELVKPGASVKLSCTASGFNIKDTYIYWVKQRPEQGLEWIGRIDPAIGTTRYDPKFQGKATLTADTSSNTAFLQLSSLTSEDTAVYYCARYDYSGSSFYFDYWGRGTTLTVSS
# VL: QAVVTQESALTTSPGETVTLTCRSSTGAVTTSNYANWVQEKPDHLFTGLIGGTNNRAPGVPARFSGSLIGDKAALTITGAQTEDEAIYFCALWYSNHLVFGGGTKLTVL
# notes: Mouse monoclonal from hybridoma; mouse IgG heavy and lambda light chain; also called mouse antibody 144L249B
# B2: chimeric m/h 144D464A (antibody, human IgG1, lambda, V domains shown)
# VH: EVQLQQSGAELVKPGASVRLSCTASGFNIKDTYIHWVKQRPEQGLEWIGRIDPAIGTTRYDPKFQGKATITTDTSSDTVHLQFSSLTSEDTAVYYCARLHYFGNNFFFDYWGQGTTLTVSS
# VL: QAVVTQESALTTSPGEAVTLTCRSSSGAVTTSNYANWVQEKPDHLFAGLIGGTNDRAPGVPARFSGSLIGDKAALTITGAQTEDEAIYFCALWFSNHWVFGGGTKLTVLG
# notes: Mouse VH/VL joined to human IgG1 constant and human Ig lambda (IGLC2) constant; also called chimeric mouse/human (m/h) 144D464A antibody
# How the values were obtained:
# [1] = target: T1, human IL-36γ, truncated; assay: SPR, Biacore T200, antibody on chip, IL-36 as analyte, 1:1 Langmuir fit
# Protocol: (§1) Antibodies were further tested for their binding to recombinant human or cynomolgus IL36α, IL-36γ in Biacore assays. In order to kinetically analyze the binding activity of the IL-36α and IL-36γ dual antagonist antibodies, the binding activity to human and cynomolgus IL-36α and IL-36γ was measured by surface plasmon resonance method (SPR). All of the following manipulations were carried out using a Biacore T200 (GE Healthcare Life Sciences, Pittsburgh, Pa.).
# (§2) To determine antibody affinity to human and cynomolgus IL36, recombinant antibodies were immobilized on a CM5 sensor chip (cat# BR100012, GE Healthcare Life Sciences, Pittsburgh, Pa.) by an amine coupling chemistry. In particular, the kinetic assay was carried out by immobilizing on the chip approximately 2000 RU of recombinant antibody. Thereafter, recombinant human or cynomolgus IL36 proteins, serially diluted from a high concentration, were allowed to run at a flow rate of 30 μL/min onto the chip for 420 seconds. The dissociation time was 3600 seconds and the binding curves were measured at 25° C. Regeneration was performed with 10 mM glycine pH 1.5 for 30s. Alternatively, the analytes were injected with increasing concentrations in a single cycle, the surface not being regenerated between injections, using a method referred to as “single cycle kinetics.” In particular, either anti-human or anti-mouse Fc specific antibodies were immobilized on a CM5 sensor chip (cat# BR100012, GE Healthcare Life Sciences, Pittsburgh, Pa.) by an amine coupling chemistry. Thereafter, IL-36α and IL-36γ dual antagonist mouse/human chimeric or mouse antibodies were captured at approximately 200 RUs, followed by injections of increasing concentrations of recombinant human and cynomolgus IL36 proteins. The association time was 300 seconds, and the final dissociation time was 1200 seconds. At the end of the analyte injections, the surface was regenerated with either 3M MgCl₂ (anti-human Fc capture antibody) for 30 s or 10 mM glycine-HCl pH 1.7 for 180 s (anti-mouse IgG capture antibody).
# (§3) The raw data were double referenced by subtraction of the signals from a reference flow cell without immobilized ligand and a buffer blank. The sensorgram corresponding to each concentration was obtained.
# [2] = target: T2, cynomolgus IL-36γ, truncated; assay: as above
# Protocol: as §1, §2, §3
# [3] = target: T3, human IL-36α(R12), truncated; assay: as above
# Protocol: as §1, §2, §3
# [4] = target: T4, cynomolgus IL-36α, truncated; assay: as above
# Protocol: as §1, §2, §3
# [5] = target: T1, human IL-36γ, truncated; assay: cell-based or functional assay
# [6] = target: T3, human IL-36α(R12), truncated; assay: cell-based or functional assay
# [7] = target: T1, human IL-36γ, truncated; assay: SPR, Biacore, 1:1 Langmuir fit; heads of c3 and c4 printed swapped
# Protocol: (§4) The humanized antibodies obtained in Example 6 were tested for their binding to recombinant human or cynomolgus macaque IL36a and IL-36γ in Biacore assays. The association time was set to 60 seconds, and the final dissociation time was set to 600 seconds. Equilibrium dissociation constant KD (kd/ka) of exemplary antibodies was determined using a 1:1 Langmuir fit model (see Tables 17-18 below).
# [8] = target: T2, cynomolgus IL-36γ, truncated; assay: as above
# Protocol: as §4
# [9] = target: T3, human IL-36α(R12), truncated; assay: as above
# Protocol: as §4
# [10] = target: T4, cynomolgus IL-36α, truncated; assay: as above
# Protocol: as §4
# [11] = target: T1, human IL-36γ, truncated; assay: cell-based or functional assay; remark: listed apart in the source
# [12] = target: T3, human IL-36α(R12), truncated; assay: cell-based or functional assay
# [13] = target: T1, human IL-36γ, truncated; assay: SPR, Biacore, 1:1 Langmuir fit
# Protocol: as §4
# [14] = target: T2, cynomolgus IL-36γ, truncated; assay: SPR, Biacore, 1:1 Langmuir fit
# Protocol: as §4
# [15] = target: T3, human IL-36α(R12), truncated; assay: SPR, Biacore, 1:1 Langmuir fit
# Protocol: as §4
# [16] = target: T4, cynomolgus IL-36α, truncated; assay: SPR, Biacore, 1:1 Langmuir fit
# Protocol: as §4
# [17] = target: T3, human IL-36α(R12), truncated; assay: cell-based or functional assay
# [18] = target: T4, cynomolgus IL-36α, truncated; assay: cell-based or functional assay
# [19] = target: T1, human IL-36γ, truncated; assay: cell-based or functional assay; remark: listed apart in the source
# [20] = target: T2, cynomolgus IL-36γ, truncated; assay: cell-based or functional assay
# [21] = target: T5, human IL-36α(Q12), truncated; assay: SPR, Biacore T200, antibody on chip, IL-36 as analyte, 1:1 Langmuir fit
# Protocol: as §1, §2, §3
Kd [1] [nM],koff [1] [s⁻¹],kon [1] [M⁻¹ s⁻¹],Kd [2] [nM],koff [2] [s⁻¹],kon [2] [M⁻¹ s⁻¹],Kd [3] [nM],koff [3] [s⁻¹],kon [3] [M⁻¹ s⁻¹],Kd [4] [nM],koff [4] [s⁻¹],kon [4] [M⁻¹ s⁻¹],"IC50 of IL-8 secretion, primary human keratinocytes, 8.4 nM human IL-36γ, FIG. 4C [5] [nM]","IC50 of IL-8 secretion, primary human keratinocytes, 6.25 nM human IL-36α, FIG. 4A [6] [nM]","IC50 of IL-8 secretion, primary human monocytes, 50 nM human IL-36γ, FIG. 5D [11] [nM]","IC50 of IL-8 secretion, primary human monocytes, 20 nM human IL-36α, FIG. 5A [12] [nM]","IC50 of IL-8 secretion, HaCaT, 10 nM human IL-36α, FIG. 1C [17] [nM]","IC50 of IL-8 secretion, HaCaT, 10 nM cynomolgus IL-36α, FIG. 2B [18] [nM]","IC50 of IL-8 secretion, HaCaT, 10 nM human IL-36γ, FIG. 1F [19] [nM]","IC50 of IL-8 secretion, HaCaT, 10 nM cynomolgus IL-36γ, FIG. 2D [20] [nM]",also measured,Binder
0.377,0.000194,516000,0.312,0.000197,631000,1.67,0.000899,539000,1.28,0.000839,658000,9.28,13.8,38.7,27.1,14.5,7.94,9.81,11.8,"koff [7]: 0.000395 s⁻¹; kon [7]: 990000 M⁻¹ s⁻¹; koff [8]: 0.000326 s⁻¹; kon [8]: 1.13e+06 M⁻¹ s⁻¹; koff [9]: 0.000785 s⁻¹; kon [9]: 515000 M⁻¹ s⁻¹; koff [10]: 0.00105 s⁻¹; kon [10]: 905000 M⁻¹ s⁻¹; IC50 of IL-8 secretion, primary human monocytes, 6 nM human IL-36γ, FIG. 5C [11]: 12 nM; Kd [13]: 0.399 nM; Kd [14]: 0.288 nM; Kd [15]: 1.53 nM; Kd [16]: 1.16 nM",B1
1.48,0.000218,147000,1.84,0.000342,186000,2.18,0.000309,142000,1.64,0.000267,163000,12.8,2.32,33.3,7.15,7.77,4.91,9.54,13.2,"Kd [21]: 1.08 nM; koff [21]: 0.000391 s⁻¹; kon [21]: 361000 M⁻¹ s⁻¹; IC50 of IL-8 secretion, primary human keratinocytes, 8.4 nM human IL-36γ, FIG. 4D [5]: 10 nM; IC50 of IL-8 secretion, primary human keratinocytes, 8 nM human IL-36α, FIG. 4B [6]: 12.3 nM; IC50 of IL-8 secretion, primary human monocytes, 40 nM human IL-36α, FIG. 5B [12]: 22.4 nM; IC50 of IL-8 secretion, HaCaT, 10 nM human IL-36α, FIG. 1A [17]: 3.84 nM; IC50 of IL-8 secretion, HaCaT, 10 nM human IL-36γ, FIG. 1D [19]: 6.43 nM",B2
